Measurements published in US20190147972A1, “BIOMOLECULE DESIGN MODEL AND USES THEREOF” (University of Notre Dame du Lac, priority 2016, published 2019).
Blank lines part the entries; values can stand above or below the substance they belong to.

Key:
[1] = target: MART126(27L)-35 pE1D/HLA-A2 (UniProt Q16655); experiment: SPR steady state (Biacore 3000), TCR immobilised, pMHC injected; relative to the unsubstituted ELA peptide
[2] = target: MART126(27L)-35 pE1F/HLA-A2 (UniProt Q16655); experiment: as above
[3] = target: MART126(27L)-35 pI5E/HLA-A2 (UniProt Q16655); experiment: as above
[4] = target: MART126(27L)-35 pT9A/HLA-A2 (UniProt Q16655); experiment: as above
[5] = target: MART126(27L)-35 pG6-Sarc/HLA-A2 (UniProt Q16655); experiment: as above
[6] = target: MART126(27L)-35 pE1Q/HLA-A2 (UniProt Q16655); experiment: as above
[7] = target: MART126(27L)-35 pE1A/HLA-A2 (UniProt Q16655); experiment: as above
[8] = target: MART126(27L)-35 pG6-Sarc/HLA-A2 (UniProt Q16655); experiment: SPR steady state, TCR immobilised, pMHC injected
MART126(27L)-35/HLA-A2 = MART126(27L)-35/HLA-A2 (UniProt Q16655); experiment: SPR steady state (Biacore 3000), TCR immobilised, pMHC injected; relative to wild type
DMF5 TCR = experiment: SPR binding of MART126(27L)-35 peptide variants/HLA-A2 to DMF5 TCR; details: ELA peptide substitution vs native peptide, SPR steady state, 25° C.
Method: Briefly, the TCR a and b chains, the HLA-A2 heavy chain, and b2-microglobulin (b2m) were generated in Escherichia coli as inclusion bodies, which were isolated and denatured in 8 M urea. TCR a and b chains were diluted in TCR refolding buffer (50 mM Tris (pH 8), 2 mM EDTA, 2.5 M urea, 9.6 mM cysteamine, 5.5 mM cystamine, 0.2 mM PMSF) at a 1:1 ratio. HLA-A2 and b2m were diluted in MHC refolding buffer (100 mM Tris (pH 8), 2 mM EDTA, 400 mM L-arginine, 6.3 mM cysteamine, 3.7 mM cystamine, 0.2 mM PMSF) at a 1:1 ratio in the presence of excess peptide. TCR and pMHC complexes were incubated for 24 h at 4° C. Afterward, complexes were desalted by dialysis at 4° C. and room temperature respectively, then purified by anion exchange followed by size-exclusion chromatography. Refolded protein absorptions at 280 nm were measured spectroscopically and concentrations determined with appropriate extinction coefficients. Mutations in TCR a and b chains were generated by whole-plasmid mutagenesis and confirmed by sequencing. Peptides were synthesized and purified commercially.
Surface plasmon resonance: Surface plasmon resonance experiments were performed with a Biacore 3000 instrument using CMS sensor chips as previously described^15. In all studies, TCR was immobilized to the sensor chip via standard amine coupling and pMHC complex was injected as analyte. Studies were performed at 25° C. in 20 mM HEPES (pH 7.4), 150 mM NaCl, 0.005% Nonidet P-20. All studies were steady-state experiments measuring RU vs. concentration of injected analyte, and were performed with TCRs coupled onto the sensor chip at 400-2000 response units. Injected pMHC spanned a concentration range of 0.1-150 μM at flow rates of 5 μl/min. Data were processed with BioEvaluation 4.1 and fit using a 1:1 binding model utilizing MATLAB 2015b.
Next, eight MART126(27L)-35 peptide variants with a broad range of complex scores were selected for experimental testing with DMF5. A peptide was also examined with a non-standard sarcosine (N-methyl glycine) substituted for Gly6 of the peptide to help test the implications of treating structured water explicitly in the DMF5 interface as discussed above and shown in FIG. 5.

Substance: DMF5 TCR T54αI
ΔΔG° (MART126(27L)-35/HLA-A2): 0.33 kcal/mol

Substance: PE1Q: MART126(27L)-35 (ELA) peptide with E1Q substitution, presented by HLA-A2 (QLAGIGILTV; MART-1 26-35 peptide; UniProt Q16655 26-35, looked up, variant A27L E26Q)
ΔΔG° (DMF5 TCR): 1.0 kcal/mol

Substance: pE1D: MART126(27L)-35 (ELA) peptide with E1D substitution, presented by HLA-A2 (DLAGIGILTV; MART-1 26-35 peptide; UniProt Q16655 26-35, looked up, variant A27L E26D)
ΔΔG° (DMF5 TCR): 1.3 kcal/mol

Substance: pE1F: MART126(27L)-35 (ELA) peptide with E1F substitution, presented by HLA-A2 (FLAGIGILTV; MART-1 26-35 peptide; UniProt Q16655 26-35, looked up, variant A27L E26F)
ΔΔG° (DMF5 TCR): 2.26 kcal/mol

More lines, now with the values ahead:

ΔΔG° [1]: 1.3 kcal/mol | ΔΔG° [2]: 2.26 kcal/mol | ΔΔG° [3]: 3.07 kcal/mol | ΔΔG° [4]: 1.6 kcal/mol | ΔΔG° [5]: -0.58 kcal/mol | ΔΔG° [6]: 1 kcal/mol | ΔΔG° [7]: 0.06 kcal/mol | fold affinity enhancement over the unsubstituted peptide [8]: 3 fold
Substance: DMF5 TCR (wild type, soluble)

ΔΔG° (DMF5 TCR): 3.07 kcal/mol
Substance: pI5E: MART126(27L)-35 (ELA) peptide with I5E substitution, presented by HLA-A2 (ELAGEGILTV; MART-1 26-35 peptide; UniProt Q16655 26-35, looked up, variant A27L I30E)

ΔΔG° (DMF5 TCR): >3 kcal/mol
Substance: pT9W: MART126(27L)-35 (ELA) peptide with T9W substitution, presented by HLA-A2 (ELAGIGILWV; MART-1 26-35 peptide; UniProt Q16655 26-35, looked up, variant A27L T34W)
